According to paper PMC6322289 (2019):

B1: pro-hevein (natural protein)
chain: EQCGRQAGGKLCPNNLCCSQWGWCGSTDEYCSPDHNCQSNCKDSGEGVGGGSASNVLATYHLYNSQDHGWDLNAASAYCSTWDANKPYSWRSKYGWTAFCGPVGAHGQSSCGKCLSVTNTGTGAKTTVRIVDQCSNGGLDLDVNVFRQLDTDGKGYERGHITVNYQFVDCGDSFNPLFSVMKSSVIN

Target: β-1,3-glucanase (Hevea brasiliensis (endogenous in latex …, UniProt P52407 37-356))
Assay: SPR

Sequence of β-1,3-glucanase (Hevea brasiliensis (P52407 37-356): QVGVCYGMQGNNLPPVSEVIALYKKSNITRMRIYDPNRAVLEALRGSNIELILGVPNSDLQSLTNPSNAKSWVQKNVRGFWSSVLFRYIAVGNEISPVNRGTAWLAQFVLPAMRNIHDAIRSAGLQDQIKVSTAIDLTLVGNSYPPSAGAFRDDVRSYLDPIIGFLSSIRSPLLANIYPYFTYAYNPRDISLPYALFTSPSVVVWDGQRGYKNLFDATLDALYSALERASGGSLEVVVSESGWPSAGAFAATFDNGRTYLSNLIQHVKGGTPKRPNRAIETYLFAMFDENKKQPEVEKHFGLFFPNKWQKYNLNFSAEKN

Binder | koff [s⁻¹]
B1 | 0.0794
EQCGRQAGGKLCPNNLCCSQWGWCGSTDEYCSPDHNCQSNCKD (natural protein) [hevein] | 0.013
